In article PMC2810336, “Mutational Analysis of Highly Conserved Residues in the Phage PhiC31 Integrase Reveals Key Amino Acids Necessary for the DNA Recombination”:
Residue numbers refer to the chain shown, from its start.

Experiments:
Test in all cases: EMSA; 400 nM protein; 50 ng/ul Poly (competitor (so in the source)), 0.05% NP-40, 50 mM KCl, 5 mM MgCl2, 10 mM EDTA, 20 ul, 0.4 ng (16 fmol) probe; 30 min at room temperature (Methods) or 30 C; pH not stated; synapsis 2 h at 30 C
Details in all cases: protein: recombinant; tags: C-terminal His; chain copies: 2; label: biotin, double-strand end-labeled; blunt
[1] = target: T1, phiC31 integrase C376A/G377A (Streptomyces phage phiC31, UniProt Q38194 1-613, C376A;G377A)
T1 sequence: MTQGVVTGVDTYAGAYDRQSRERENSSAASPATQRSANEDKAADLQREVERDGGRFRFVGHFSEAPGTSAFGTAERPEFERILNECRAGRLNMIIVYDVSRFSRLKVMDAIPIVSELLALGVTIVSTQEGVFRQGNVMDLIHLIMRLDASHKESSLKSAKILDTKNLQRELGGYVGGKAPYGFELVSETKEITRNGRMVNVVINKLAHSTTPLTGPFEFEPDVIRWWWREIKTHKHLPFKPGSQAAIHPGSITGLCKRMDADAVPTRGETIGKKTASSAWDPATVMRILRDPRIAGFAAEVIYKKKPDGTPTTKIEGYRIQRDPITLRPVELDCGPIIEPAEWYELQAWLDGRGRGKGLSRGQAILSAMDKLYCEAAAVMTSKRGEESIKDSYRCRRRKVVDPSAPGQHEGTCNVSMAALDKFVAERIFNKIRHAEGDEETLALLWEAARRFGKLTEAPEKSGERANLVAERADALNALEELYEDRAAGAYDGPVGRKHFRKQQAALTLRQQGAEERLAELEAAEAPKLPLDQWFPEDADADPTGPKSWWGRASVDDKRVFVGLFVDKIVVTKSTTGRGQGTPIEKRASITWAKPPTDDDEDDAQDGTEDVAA

[2] = target: T2, phiC31 integrase V566A (Streptomyces phage phiC31, UniProt Q38194 1-613, V566A)
T2 sequence: T1 sequence with A376C, A377G, V566A

[3] = target: T3, phiC31 integrase G182A/F183A (Streptomyces phage phiC31, UniProt Q38194 1-613, G182A;F183A)
T3 sequence: T1 sequence with G182A, F183A, A376C, A377G

Measured: binding signal

B1: attB 41 bp (dsDNA)
DNA 1: CGGGTGCCAGGGCGTGCCCTTGGGCTCCCCGGGCGCGTACT
DNA 2: AGTACGCGCCCGGGGAGCCCAAGGGCACGCCCTGGCACCCG
0 % of WT: all assays above
